# Literature values in paper PMC6858539.
# Where two headings read alike, the source gives them in different places.
# How the values were obtained:
# [1] = molecular target: RodZ nascent chain on ribosome (RNC-RodZ) (Escherichia coli) (UniProt P27434)
# [2] = molecular target: RodZ nascent chain on ribosome (RNC-RodZ) (Escherichia coli) (UniProt P27434); remark: listed apart in the source
# Sequence of UniProt P27434 (P27434 whole entry): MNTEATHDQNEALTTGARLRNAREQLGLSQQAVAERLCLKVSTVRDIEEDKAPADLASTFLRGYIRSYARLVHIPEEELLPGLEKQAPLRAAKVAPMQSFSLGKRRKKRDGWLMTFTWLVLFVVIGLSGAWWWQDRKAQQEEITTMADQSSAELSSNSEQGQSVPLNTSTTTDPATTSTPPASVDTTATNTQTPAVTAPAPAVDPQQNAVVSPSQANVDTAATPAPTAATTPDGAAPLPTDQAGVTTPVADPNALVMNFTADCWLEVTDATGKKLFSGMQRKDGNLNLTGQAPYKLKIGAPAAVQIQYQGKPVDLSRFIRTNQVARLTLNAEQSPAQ
Kd [1],Kd [2],Substance
0.024 µM,–,SRP (from UniProt P0AGD7)
–,< 0.001 µM,SecA (from UniProt P10408)
